Assay results from article PMC3121535 (Journal of molecular biology, 2010).
Residue numbers refer to the chain shown, from its start. Numbers in names are those of the source. One block for each molecule: values may come before it. Where no end group is shown, it is not given here. [ ]: non-standard residue; d: D form. pS = N[C@@H](COP(=O)(O)O)C(=O)O

Columns and labels:
[1] = molecular target: SERCA (sarcoplasmic reticulum calcium ATPase); experiment: 2D co-crystal frequency, negative-stain EM; conditions: sites S16
cryo-EM structure = molecular target: the molecule itself; experiment: cryo-EM structure
SDS-PAGE = molecular target: the molecule itself; experiment: SDS-PAGE

other: crystals per grid square ([1]; reference: non-phosphorylated wild-type PLB): weaker; reference 3.1 ±0.5 (n = 7)
Molecule: phospholamban (PLB) (from UniProt P26678) PKA-phosphorylated wild-type PLB

other: crystals per grid square ([1]; reference: non-phosphorylated K27A PLB): weaker; reference 5 ± 1 (n = 6)
Molecule: phospholamban (PLB) (from UniProt P26678) PKA-phosphorylated K27A PLB

B1: wild-type phospholamban (PLB) (natural protein, human, UniProt P26678 1-52, looked up)
chain: MEKVQYLTRSAIRRASTIEMPQQARQKLQNLFINFCLILICLLLICIIVMLL
stoichiometry N (cryo-EM structure): 5

B2: phosphorylated K27A phospholamban (Ser16, by PKA) (natural protein, human, UniProt P26678 1-52, looked up)
chain: MEKVQYLTRSAIRRA[pS]TIEMPQQARQALQNLFINFCLILICLLLICIIVMLL
modifications: cysteine pairing not given here
stoichiometry N (SDS-PAGE): 5

B3: phospholamban gain-of-function mutant Lys27-to-Ala (K27A) (natural protein, human, UniProt P26678 1-52, looked up)
chain: B1 chain with K27A
stoichiometry N (cryo-EM structure): 5

B4: phosphorylated wild-type phospholamban (Ser16, by PKA) (natural protein, human, UniProt P26678 1-52, looked up)
chain: MEKVQYLTRSAIRRA[pS]TIEMPQQARQKLQNLFINFCLILICLLLICIIVMLL
modifications: cysteine pairing not given here
stoichiometry N (cryo-EM structure): 5
